Test results taken from patent US20240101981A1 (LINNO PHARMACEUTICALS, published 2024).

Target: T1, human transferrin (human, UniProt P02787 20-698)
T1 construct: mature; also called hTf; native human transferrin
Assay: ELISA, biotinylated human transferrin on streptavidin plate, anti-hARSA detection
Procedure: A 96-well plate was coated with streptavidin (0.1 μg/mL, 100 μL/well) and incubated overnight at 4° C.; after washing the plate three times with buffer PBST, the 96-well plate was blocked with 200 μL of PBST containing 1% bovine serum albumin (BSA) for 1 hour at room temperature. The plate was then washed three times with PBST, added with biotinylated human transferrin (1 μg/mL, 100 μL/well) and incubated at room temperature for 1 hour. […] The plate was then washed three times with PBST, added with goat anti-hARSA antibody (R&D, AF2485) (100 μL/well) at a concentration of 0.125 ug/mL to each well and incubated at room temperature for 1 hour. The plate was then washed three times with PBST, added with 100 μL anti-goat IgG-HRP to each well and incubated at room temperature for 0.5 hour, followed by the same washing steps aforementioned. The plate was then added with 100 μL/well of TMB substrate solution and incubated at room temperature for 15 minutes. The reaction was then stopped by adding 100 μL/well of the stop solution, and the absorbance was read at 450 nm using an ELISA reader.

T1 sequence (P02787 20-698): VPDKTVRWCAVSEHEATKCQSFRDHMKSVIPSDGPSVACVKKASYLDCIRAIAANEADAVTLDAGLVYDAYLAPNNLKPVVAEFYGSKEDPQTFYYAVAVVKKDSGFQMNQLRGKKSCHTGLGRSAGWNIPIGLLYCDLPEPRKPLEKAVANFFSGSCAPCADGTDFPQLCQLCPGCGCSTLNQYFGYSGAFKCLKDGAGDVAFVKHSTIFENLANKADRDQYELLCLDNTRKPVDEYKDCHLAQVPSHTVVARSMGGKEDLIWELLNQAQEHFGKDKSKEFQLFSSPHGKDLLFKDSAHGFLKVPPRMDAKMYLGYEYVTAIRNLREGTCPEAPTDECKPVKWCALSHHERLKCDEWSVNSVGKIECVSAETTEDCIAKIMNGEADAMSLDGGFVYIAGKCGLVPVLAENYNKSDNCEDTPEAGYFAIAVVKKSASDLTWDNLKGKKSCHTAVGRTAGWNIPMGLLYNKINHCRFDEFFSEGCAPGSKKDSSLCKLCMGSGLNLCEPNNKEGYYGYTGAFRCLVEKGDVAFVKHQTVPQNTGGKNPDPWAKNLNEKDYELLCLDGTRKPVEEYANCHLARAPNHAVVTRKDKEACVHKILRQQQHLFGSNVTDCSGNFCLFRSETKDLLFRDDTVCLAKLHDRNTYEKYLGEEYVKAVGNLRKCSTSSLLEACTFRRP

binding result | Binder
binds | hARSA-9056VHH-his (other, Expressed in HEK293F cells) RPPNIVLIFADDLGYGDLGCYGHPSSTTPNLDQLAAGGLRFTDFYVPVSLCTPSRAALLTGRLPVRMGMYPGVLVPSSRGGLPLEEVTVAEVLAARGYLTGMAGKWHLGVGPEGAFLPPHQGFHRFLGIPYSHDQGPCQNLTCFPPATPCDGGCDQGLVPIPLLANLSVEAQPPWLPGLEARYMAFAHDLMADAQRQDRPFFLYYASHHTHYPQFSGQSFAERSGRGPFGDSLMELDAAVGTLMTAIGDLGLLEETLVIFTADNGPETMRMSRGGCSGLLRCGKGTTYEGGVREPALAFWPGHIAPGVTHELASSLDLLPTLAALAGAPLPNVTLDGFDLSPLLLGTGKSPRQSLFFYPSYPDEVRGVFAVRTGKYKAHFFTQGSAHSDTTADPACHASSSLTAHEPPLLYDLSKDPGENYNLLGGVAGATPEVLQALKQLQLLKAQLDAAVTFGPSQVARGEDPALQICCHPGCTPRPACCHCPDPHAGGGGSGGGGSGGGGSEVQLVESGGGLVQPGGSLRLSCAASGHAYGGNYMGWFRQAPGKGLEGVAVLYTGGGSTYYADSVKGRFTISEDNSKNTVYLQMNSLRAEDTAVYYCALALGSARWYTSSLDARAYNIWGQGTLVTVSSGGGGSHHHHHH
no binding | hARSA (enzyme, Control enzyme without the VHH; also called rhARSA; hARSA-his) RPPNIVLIFADDLGYGDLGCYGHPSSTTPNLDQLAAGGLRFTDFYVPVSLCTPSRAALLTGRLPVRMGMYPGVLVPSSRGGLPLEEVTVAEVLAARGYLTGMAGKWHLGVGPEGAFLPPHQGFHRFLGIPYSHDQGPCQNLTCFPPATPCDGGCDQGLVPIPLLANLSVEAQPPWLPGLEARYMAFAHDLMADAQRQDRPFFLYYASHHTHYPQFSGQSFAERSGRGPFGDSLMELDAAVGTLMTAIGDLGLLEETLVIFTADNGPETMRMSRGGCSGLLRCGKGTTYEGGVREPALAFWPGHIAPGVTHELASSLDLLPTLAALAGAPLPNVTLDGFDLSPLLLGTGKSPRQSLFFYPSYPDEVRGVFAVRTGKYKAHFFTQGSAHSDTTADPACHASSSLTAHEPPLLYDLSKDPGENYNLLGGVAGATPEVLQALKQLQLLKAQLDAAVTFGPSQVARGEDPALQICCHPGCTPRPACCHCPDPHA
